Assay results published in patent US20260184777A1 (BEIJING SUNGEN BIOMEDICAL TECHNOLOGY, published 2026).
Changes are numbered by the printed parent chain.

T1: human S100A8/A9 heterodimeric antigen, His-tagged (hS100A8/A9-His) (human, UniProt P05109 1-93; P06702 1-114)
T1 sequence 1: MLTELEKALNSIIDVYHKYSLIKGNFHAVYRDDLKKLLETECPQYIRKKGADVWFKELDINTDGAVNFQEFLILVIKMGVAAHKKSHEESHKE
T1 sequence 2: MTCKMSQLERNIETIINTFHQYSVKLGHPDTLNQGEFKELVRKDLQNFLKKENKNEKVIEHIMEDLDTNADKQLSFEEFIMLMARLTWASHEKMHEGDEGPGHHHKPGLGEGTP

B1: CM-50 (antibody, human IgG4 S228P, lambda, V domains shown)
VH: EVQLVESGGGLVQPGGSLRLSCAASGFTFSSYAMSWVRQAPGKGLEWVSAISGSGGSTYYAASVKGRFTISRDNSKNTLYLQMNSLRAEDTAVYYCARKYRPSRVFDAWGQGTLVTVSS
VL: SYELTQPPSVSVAPGQTARITCSGDALGDKYASWYQQKPGQAPVLVIYEDAKRPSGIPERFSGSNSGNTATLTISGTQAEDEADYYCQSNDADAVWVFGGGTKLTVLG
B2: CM-76 (antibody, human IgG4 S228P, lambda, V domains shown)
VH: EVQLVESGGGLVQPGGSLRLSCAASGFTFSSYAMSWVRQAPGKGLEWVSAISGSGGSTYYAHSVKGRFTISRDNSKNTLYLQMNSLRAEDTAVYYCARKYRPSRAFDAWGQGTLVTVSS
VL: B1 VL with Y31F, A92V
B3: CM-59 (antibody, human IgG4 S228P, lambda, V domains shown)
VH: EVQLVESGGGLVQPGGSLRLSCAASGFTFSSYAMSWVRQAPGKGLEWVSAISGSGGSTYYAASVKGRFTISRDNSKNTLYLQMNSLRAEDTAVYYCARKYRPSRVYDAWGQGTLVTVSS
VL: B1 VL with A92I
B4: CM-62 (antibody, human IgG4 S228P, lambda, V domains shown)
VH: EVQLVESGGGLVQPGGSLRLSCAASGFTFSSYVMSWVRQAPGKGLEWVSAISGSGGSTYYAASVKGRFTISRDNSKNTLYLQMNSLRAEDTAVYYCARKYRPSRVFDAWGQGTLVTVSS
VL: B1 VL with K52R
B5: CM-70 (antibody, human IgG4 S228P, lambda, V domains shown)
VH: B4 VH with V33A, A61H, V105A
VL: B1 VL with Y31F
B6: CM-81 (antibody, human IgG4 S228P, lambda, V domains shown)
VH: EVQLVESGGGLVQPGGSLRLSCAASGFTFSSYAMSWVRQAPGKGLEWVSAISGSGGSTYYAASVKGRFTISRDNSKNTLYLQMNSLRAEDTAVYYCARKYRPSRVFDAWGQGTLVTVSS
VL: B1 VL with P54D
B7: CM-57 (antibody, human IgG4 S228P, lambda, V domains shown)
VH: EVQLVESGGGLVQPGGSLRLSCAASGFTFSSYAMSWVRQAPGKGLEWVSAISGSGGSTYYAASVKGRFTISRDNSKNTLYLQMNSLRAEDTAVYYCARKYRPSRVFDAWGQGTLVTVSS
VL: B1 VL with Y31F, A92I
B8: CM-41 (antibody, human IgG4 S228P, lambda, V domains shown)
VH: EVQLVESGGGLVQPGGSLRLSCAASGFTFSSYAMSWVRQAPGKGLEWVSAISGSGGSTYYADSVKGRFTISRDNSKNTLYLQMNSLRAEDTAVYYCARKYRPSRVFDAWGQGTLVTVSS
VL: B1 VL with A51S
B9: CM-46 (antibody, human IgG4 S228P, lambda, V domains shown)
VH: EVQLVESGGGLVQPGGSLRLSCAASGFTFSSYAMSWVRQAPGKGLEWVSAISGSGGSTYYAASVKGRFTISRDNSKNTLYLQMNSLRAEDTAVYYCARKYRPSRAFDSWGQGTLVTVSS
VL: B1 VL with Y31F, A51S, A94S
B10: CM-66 (antibody, human IgG4 S228P, lambda, V domains shown)
VH: B4 VH with F29Y, V33A, V105A
VL: B1 VL with A92I
B11: CM-65 (antibody, human IgG4 S228P, lambda, V domains shown)
VH: B4 VH with F29Y, V33A
VL: B1 VL with E49Q, A92I
B12: CM-67 (antibody, human IgG4 S228P, lambda, V domains shown)
VH: B4 VH with Y32H, V33A, Y100F
VL: B1 VL with K52R
B13: CM-45 (antibody, human IgG4 S228P, lambda, V domains shown)
VH: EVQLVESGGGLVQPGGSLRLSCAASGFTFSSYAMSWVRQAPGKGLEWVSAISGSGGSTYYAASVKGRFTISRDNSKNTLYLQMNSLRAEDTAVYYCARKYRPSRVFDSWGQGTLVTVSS
VL: B1 VL
B14: CM-74 (antibody, human IgG4 S228P, lambda, V domains shown)
VH: B4 VH with V33A, Y59W, F106Y
VL: B1 VL with K52R, A92I
B15: CM-71 (antibody, human IgG4 S228P, lambda, V domains shown)
VH: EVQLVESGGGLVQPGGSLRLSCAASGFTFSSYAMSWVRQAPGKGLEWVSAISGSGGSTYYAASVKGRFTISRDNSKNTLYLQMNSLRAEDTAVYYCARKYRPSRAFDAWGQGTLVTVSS
VL: B1 VL with Y31F, A92I
B16: CM-82 (antibody, human IgG4 S228P, lambda, V domains shown)
VH: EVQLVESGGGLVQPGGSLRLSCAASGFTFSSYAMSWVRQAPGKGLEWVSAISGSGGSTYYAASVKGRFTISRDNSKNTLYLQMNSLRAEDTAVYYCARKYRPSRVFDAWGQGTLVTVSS
VL: B1 VL with S55W
B17: CM-60 (antibody, human IgG4 S228P, lambda, V domains shown)
VH: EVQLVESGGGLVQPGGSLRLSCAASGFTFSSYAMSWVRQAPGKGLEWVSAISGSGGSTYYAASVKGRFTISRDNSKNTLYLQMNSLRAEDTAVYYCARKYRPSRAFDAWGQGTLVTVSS
VL: B1 VL with A92I
B18: CM-83 (antibody, human IgG4 S228P, lambda, V domains shown)
VH: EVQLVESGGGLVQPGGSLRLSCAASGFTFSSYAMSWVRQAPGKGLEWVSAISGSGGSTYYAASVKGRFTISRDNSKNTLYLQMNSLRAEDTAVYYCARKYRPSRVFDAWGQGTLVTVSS
VL: B1 VL with S55D
B19: CM-80 (antibody, human IgG4 S228P, lambda, V domains shown)
VH: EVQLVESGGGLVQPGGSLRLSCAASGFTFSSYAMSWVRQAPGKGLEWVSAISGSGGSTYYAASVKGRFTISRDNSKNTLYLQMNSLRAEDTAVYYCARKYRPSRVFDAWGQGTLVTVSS
VL: B1 VL with P54Q
B20: CM-47 (antibody, human IgG4 S228P, lambda, V domains shown)
VH: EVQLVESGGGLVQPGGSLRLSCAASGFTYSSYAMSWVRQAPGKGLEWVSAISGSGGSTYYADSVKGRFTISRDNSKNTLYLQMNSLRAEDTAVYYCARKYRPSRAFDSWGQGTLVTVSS
VL: B1 VL with A51S, A92I, A94S
B21: CM-49 (antibody, human IgG4 S228P, lambda, V domains shown)
VH: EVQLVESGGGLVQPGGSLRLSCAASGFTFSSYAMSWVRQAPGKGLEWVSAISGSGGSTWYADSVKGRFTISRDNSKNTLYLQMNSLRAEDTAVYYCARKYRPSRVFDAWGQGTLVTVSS
VL: B1 VL with A92I, A94S
B22: CM-52 (antibody, human IgG4 S228P, lambda, V domains shown)
VH: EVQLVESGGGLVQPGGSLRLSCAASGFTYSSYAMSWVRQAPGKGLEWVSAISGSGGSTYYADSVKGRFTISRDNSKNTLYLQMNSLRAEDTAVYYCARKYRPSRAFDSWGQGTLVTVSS
VL: B1 VL with A92I, A94S
B23: CM-72 (antibody, human IgG4 S228P, lambda, V domains shown)
VH: B4 VH with F29Y, V33A, V105A
VL: B1 VL with Y31F, A92I
B24: CM-48 (antibody, human IgG4 S228P, lambda, V domains shown)
VH: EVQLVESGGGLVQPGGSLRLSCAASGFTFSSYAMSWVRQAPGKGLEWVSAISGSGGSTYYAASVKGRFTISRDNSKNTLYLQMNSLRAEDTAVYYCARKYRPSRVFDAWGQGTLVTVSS
VL: B1 VL with Y31F, A51S, A92I, A94S
B25: CM-40 (antibody, human IgG4 S228P, lambda, V domains shown)
VH: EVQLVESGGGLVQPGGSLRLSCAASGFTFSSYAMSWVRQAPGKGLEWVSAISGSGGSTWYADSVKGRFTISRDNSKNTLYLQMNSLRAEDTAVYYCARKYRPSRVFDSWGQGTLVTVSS
VL: B1 VL with A51S, A92V, A94S
B26: CM-61 (antibody, human IgG4 S228P, lambda, V domains shown)
VH: B4 VH with F29Y, V33A
VL: B1 VL with E49Q
B27: CM-84 (antibody, human IgG4 S228P, lambda, V domains shown)
VH: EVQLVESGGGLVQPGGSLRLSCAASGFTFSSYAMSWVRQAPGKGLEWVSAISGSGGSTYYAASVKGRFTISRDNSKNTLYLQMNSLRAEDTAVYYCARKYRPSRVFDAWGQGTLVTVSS
VL: B1 VL with S55D, V95Y
B28: CM-75 (antibody, human IgG4 S228P, lambda, V domains shown)
VH: B4 VH with V33A, A61V, V105A
VL: B1 VL with Y31F, E49Q
B29: CM-64 (antibody, human IgG4 S228P, lambda, V domains shown)
VH: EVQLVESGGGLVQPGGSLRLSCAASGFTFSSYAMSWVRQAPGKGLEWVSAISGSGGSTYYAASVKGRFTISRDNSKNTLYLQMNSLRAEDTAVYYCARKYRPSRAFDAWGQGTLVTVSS
VL: B1 VL with Y31F
B30: CM-56 (antibody, human IgG4 S228P, lambda, V domains shown)
VH: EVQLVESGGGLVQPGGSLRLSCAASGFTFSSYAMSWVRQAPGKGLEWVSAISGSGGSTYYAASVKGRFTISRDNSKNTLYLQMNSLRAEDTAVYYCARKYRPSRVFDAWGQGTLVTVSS
VL: B1 VL with A92I
B31: CM-68 (antibody, human IgG4 S228P, lambda, V domains shown)
VH: B4 VH with V33A, M34I, V105A
VL: B1 VL with A92L
B32: CM-79 (antibody, human IgG4 S228P, lambda, V domains shown)
VH: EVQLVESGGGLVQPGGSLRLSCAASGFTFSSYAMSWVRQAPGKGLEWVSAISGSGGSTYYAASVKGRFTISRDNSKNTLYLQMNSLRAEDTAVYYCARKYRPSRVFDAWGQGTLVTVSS
VL: B1 VL with P54N
B33: CM-44 (antibody, human IgG4 S228P, lambda, V domains shown)
VH: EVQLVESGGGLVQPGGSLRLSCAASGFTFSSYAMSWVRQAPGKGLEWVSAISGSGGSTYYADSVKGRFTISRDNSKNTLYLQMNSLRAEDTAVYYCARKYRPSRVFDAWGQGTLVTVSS
VL: B1 VL
B34: CM-78 (antibody, human IgG4 S228P, lambda, V domains shown)
VH: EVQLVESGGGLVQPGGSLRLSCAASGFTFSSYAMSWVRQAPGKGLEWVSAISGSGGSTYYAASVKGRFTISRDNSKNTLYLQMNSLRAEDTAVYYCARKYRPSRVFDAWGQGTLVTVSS
VL: B1 VL with K52H
B35: CM-55 (antibody, human IgG4 S228P, lambda, V domains shown)
VH: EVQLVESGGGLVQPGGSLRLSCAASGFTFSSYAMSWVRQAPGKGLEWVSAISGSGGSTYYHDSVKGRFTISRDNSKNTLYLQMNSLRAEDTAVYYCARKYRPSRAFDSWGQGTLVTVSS
VL: B1 VL with Y31F, A51S
B36: CM-73 (antibody, human IgG4 S228P, lambda, V domains shown)
VH: B4 VH with F29Y, V33A, V105A
VL: B1 VL with E49Q, A92I
B37: CM-69 (antibody, human IgG4 S228P, lambda, V domains shown)
VH: B4 VH with V33A, Y59W, V105A
VL: B1 VL with E49Q
B38: CM-53 (antibody, human IgG4 S228P, lambda, V domains shown)
VH: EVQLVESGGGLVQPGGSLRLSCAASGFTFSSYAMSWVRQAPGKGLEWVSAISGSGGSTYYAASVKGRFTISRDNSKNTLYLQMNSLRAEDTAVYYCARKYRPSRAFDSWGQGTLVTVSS
VL: B1 VL
B39: CM-63 (antibody, human IgG4 S228P, lambda, V domains shown)
VH: B4 VH with V33A, Y59W
VL: B1 VL with A92V
B40: CM-43 (antibody, human IgG4 S228P, lambda, V domains shown)
VH: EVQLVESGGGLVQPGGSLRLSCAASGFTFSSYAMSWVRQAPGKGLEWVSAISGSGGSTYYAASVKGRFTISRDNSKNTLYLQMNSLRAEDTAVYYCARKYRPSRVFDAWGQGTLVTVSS
VL: B1 VL with A94S
B41: CM-58 (antibody, human IgG4 S228P, lambda, V domains shown)
VH: B4 VH with V33A, Y59W
VL: B1 VL with A92I
B42: CM-42 (antibody, human IgG4 S228P, lambda, V domains shown)
VH: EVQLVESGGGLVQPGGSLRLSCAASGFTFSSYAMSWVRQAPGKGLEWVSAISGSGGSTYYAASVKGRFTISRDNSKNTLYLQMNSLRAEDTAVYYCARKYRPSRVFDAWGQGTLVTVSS
VL: B1 VL with A51S, A92I, A94S
B43: CM-77 (antibody, human IgG4 S228P, lambda, V domains shown)
VH: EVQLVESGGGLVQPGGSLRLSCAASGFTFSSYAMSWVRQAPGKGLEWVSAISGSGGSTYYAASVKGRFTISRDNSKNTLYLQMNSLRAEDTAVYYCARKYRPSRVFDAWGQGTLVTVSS
VL: B1 VL with K52N
B44: CM-54 (antibody, human IgG4 S228P, lambda, V domains shown)
VH: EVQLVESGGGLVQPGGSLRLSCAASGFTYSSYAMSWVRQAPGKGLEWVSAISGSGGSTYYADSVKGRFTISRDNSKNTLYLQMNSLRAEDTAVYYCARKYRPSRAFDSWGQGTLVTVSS
VL: B1 VL with Y31F, A51S, A92I, A94S

molecular target: T1, human S100A8/A9 heterodimeric antigen, …; assay: cell-based or functional assay

Relative IC50 (IC50 relative to CM-1), IL-6 release from hS100A8/A9-activated human PBMCs | Binder
0.679 relative to CM-1 | B1
1.55 relative to CM-1 | B2
1.04 relative to CM-1 | B3
1.58 relative to CM-1 | B4
1.95 relative to CM-1 | B5
2.51 relative to CM-1 | B6
1.16 relative to CM-1 | B7
1.11 relative to CM-1 | B8
1.51 relative to CM-1 | B9
0.694 relative to CM-1 | B10
0.618 relative to CM-1 | B11
0.548 relative to CM-1 | B12
2.09 relative to CM-1 | B13
1.52 relative to CM-1 | B14
1.23 relative to CM-1 | B15
0.156 relative to CM-1 | B16
0.936 relative to CM-1 | B17
2.48 relative to CM-1 | B18
0.943 relative to CM-1 | B19
2.12 relative to CM-1 | B20
0.617 relative to CM-1 | B21
1.19 relative to CM-1 | B22

Relative IC50 (IC50 relative to CM-1), IL-6 release from hS100A8/A9-activated human PBMCs | Binder
0.639 relative to CM-1 | B23
1.58 relative to CM-1 | B24
2.18 relative to CM-1 | B25
0.923 relative to CM-1 | B26
0.393 relative to CM-1 | B27
2.85 relative to CM-1 | B28
0.5 relative to CM-1 | B29
1.12 relative to CM-1 | B30
1.78 relative to CM-1 | B31
0.695 relative to CM-1 | B32
1.44 relative to CM-1 | B33
0.99 relative to CM-1 | B34
1.67 relative to CM-1 | B35
0.703 relative to CM-1 | B36
1.93 relative to CM-1 | B37
0.357 relative to CM-1 | B38
1.33 relative to CM-1 | B39
1.99 relative to CM-1 | B40
1.52 relative to CM-1 | B41
0.866 relative to CM-1 | B42
0.633 relative to CM-1 | B43
0.997 relative to CM-1 | B44
